One block for each binder: values may come before it.
Assays:
Assay in all cases: holdup assay
Design in all cases: key: below the threshold = too weak to quantify, mostly under pKd 3.1 to 4
ARHGEF12, Q9NZN5-2 = biological target: ARHGEF12, Q9NZN5-2
DFNB31_2, Q9P202 = biological target: T1, DFNB31_2, Q9P202
T1 sequence (Q9P202 274-371, limits assumed, looked up): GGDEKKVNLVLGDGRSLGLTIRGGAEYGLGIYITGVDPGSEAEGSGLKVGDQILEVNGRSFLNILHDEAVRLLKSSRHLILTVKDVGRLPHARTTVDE

DLG4_1, P78352 = biological target: DLG4_1, P78352
DLG4_3, P78352 = biological target: DLG4_3, P78352
FRMPD1, Q5SYB0 = biological target: T2, FRMPD1, Q5SYB0
T2 sequence (Q5SYB0 52-145, limits assumed, looked up): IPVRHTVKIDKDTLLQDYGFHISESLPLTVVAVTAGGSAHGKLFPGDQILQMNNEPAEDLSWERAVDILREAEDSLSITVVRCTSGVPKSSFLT

GIPC2, Q8TF65 = biological target: GIPC2, Q8TF65
GRID2IP_1, A4D2P6 = biological target: GRID2IP_1, A4D2P6
GRID2IP_2, A4D2P6 = biological target: GRID2IP_2, A4D2P6
GRIP1_7, Q9Y3R0 = biological target: T3, GRIP1_7, Q9Y3R0
T3 sequence (Q9Y3R0 999-1096, limits assumed, looked up): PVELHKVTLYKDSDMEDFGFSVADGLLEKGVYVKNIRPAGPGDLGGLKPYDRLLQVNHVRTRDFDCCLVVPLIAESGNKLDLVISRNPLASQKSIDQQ

GRIP2_5, Q9C0E4 = biological target: GRIP2_5, Q9C0E4
GRIP2_6, Q9C0E4 = biological target: GRIP2_6, Q9C0E4
GRIP2_7, Q9C0E4 = biological target: GRIP2_7, Q9C0E4
HTRA3, P83110 = biological target: T4, HTRA3, P83110
T4 sequence (P83110 354-453, limits assumed, looked up): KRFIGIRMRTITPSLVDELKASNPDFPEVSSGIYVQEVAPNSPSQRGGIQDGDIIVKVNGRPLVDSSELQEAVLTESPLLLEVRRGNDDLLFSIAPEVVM

LDB3, O75112 = biological target: LDB3, O75112
LNX1_1, Q8TBB1 = biological target: LNX1_1, Q8TBB1
MAGI2_2, Q86UL8 = biological target: MAGI2_2, Q86UL8
MAST2, Q6P0Q8 = biological target: MAST2, Q6P0Q8
MPP2, Q14168 = biological target: T5, MPP2, Q14168
T5 sequence (Q14168 180-250, limits assumed, looked up): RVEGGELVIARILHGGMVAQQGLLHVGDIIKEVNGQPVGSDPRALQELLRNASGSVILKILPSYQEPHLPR

MPP6, Q9NZW5 = biological target: T6, MPP6, Q9NZW5
T6 sequence (Q9NZW5 125-219, limits assumed, looked up): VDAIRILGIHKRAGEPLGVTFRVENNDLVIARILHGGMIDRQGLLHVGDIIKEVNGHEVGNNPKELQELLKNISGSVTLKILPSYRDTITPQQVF

PDZRN3_1, Q9UPQ7 = biological target: T7, PDZRN3_1, Q9UPQ7
T7 sequence (Q9UPQ7 244-349, limits assumed, looked up): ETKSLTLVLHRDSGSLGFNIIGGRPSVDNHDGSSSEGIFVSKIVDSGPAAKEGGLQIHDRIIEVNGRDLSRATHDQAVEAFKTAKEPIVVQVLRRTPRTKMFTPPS

SCRIB_1, Q14160 = biological target: SCRIB_1, Q14160
SCRIB_2, Q14160 = biological target: SCRIB_2, Q14160
SCRIB_3, Q14160 = biological target: SCRIB_3, Q14160
SNTA1, Q13424 = biological target: T8, SNTA1, Q13424
T8 sequence (Q13424 82-180, limits assumed, looked up): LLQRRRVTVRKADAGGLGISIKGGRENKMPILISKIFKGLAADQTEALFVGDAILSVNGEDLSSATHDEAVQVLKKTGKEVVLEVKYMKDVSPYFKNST

SNTB1, Q13884 = biological target: T9, SNTB1, Q13884
T9 sequence (Q13884 107-205, limits assumed, looked up): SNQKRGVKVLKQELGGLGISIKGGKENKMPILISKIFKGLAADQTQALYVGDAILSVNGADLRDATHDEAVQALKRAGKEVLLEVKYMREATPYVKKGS

TJP3_3, O95049 = biological target: T10, TJP3_3, O95049
T10 sequence (O95049 375-456, limits assumed, looked up): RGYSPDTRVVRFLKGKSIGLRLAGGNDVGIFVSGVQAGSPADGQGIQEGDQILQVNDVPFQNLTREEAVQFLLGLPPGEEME

TX1BP3, O14907 = biological target: T11, TX1BP3, O14907
T11 sequence (O14907 10-122, limits assumed, looked up): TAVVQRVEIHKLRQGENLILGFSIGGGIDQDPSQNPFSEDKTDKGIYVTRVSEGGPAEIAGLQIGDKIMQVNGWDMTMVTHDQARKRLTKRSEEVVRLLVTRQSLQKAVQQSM

[1] = plain residues with an end cap or a label only (N-terminal biotin on a linker: ado-ado)
[2] = plain residues with an end cap or a label only (N-terminal biotin on a linker: ahx)

GIPC2, Q8TF65, sequence (Q8TF65 112-203): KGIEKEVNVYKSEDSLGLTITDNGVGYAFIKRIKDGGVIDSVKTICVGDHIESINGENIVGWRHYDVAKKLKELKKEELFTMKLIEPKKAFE
GRIP2_6, Q9C0E4, sequence (Q9C0E4 648-740): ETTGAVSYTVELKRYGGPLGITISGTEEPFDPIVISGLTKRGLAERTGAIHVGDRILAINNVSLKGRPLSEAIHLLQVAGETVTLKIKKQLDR
GRIP2_7, Q9C0E4, sequence (Q9C0E4 934-1023): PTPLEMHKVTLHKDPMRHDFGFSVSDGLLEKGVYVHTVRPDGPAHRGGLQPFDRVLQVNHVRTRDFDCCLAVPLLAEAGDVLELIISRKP
GRID2IP_1, A4D2P6, sequence (A4D2P6 1-87): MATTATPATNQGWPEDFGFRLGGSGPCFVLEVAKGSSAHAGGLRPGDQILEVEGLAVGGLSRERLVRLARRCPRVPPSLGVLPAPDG
LNX1_1, Q8TBB1, sequence (Q8TBB1 261-371): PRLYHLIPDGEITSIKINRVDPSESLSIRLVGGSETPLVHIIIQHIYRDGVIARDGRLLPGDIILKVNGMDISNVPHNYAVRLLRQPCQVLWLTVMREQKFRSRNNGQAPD
DLG4_3, P78352, sequence (P78352 306-403): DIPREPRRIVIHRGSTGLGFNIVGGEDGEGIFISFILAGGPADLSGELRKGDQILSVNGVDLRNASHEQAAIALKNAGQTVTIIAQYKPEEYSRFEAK
SCRIB_2, Q14160, sequence (Q14160 857-960): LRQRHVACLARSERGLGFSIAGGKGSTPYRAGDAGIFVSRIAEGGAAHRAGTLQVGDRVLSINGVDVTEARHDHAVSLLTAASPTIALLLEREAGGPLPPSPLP
MAGI2_2, Q86UL8, sequence (Q86UL8 410-522): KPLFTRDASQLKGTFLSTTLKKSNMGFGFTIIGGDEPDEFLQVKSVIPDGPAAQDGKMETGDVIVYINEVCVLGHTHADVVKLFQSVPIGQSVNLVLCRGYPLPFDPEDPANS
SCRIB_3, Q14160, sequence (Q14160 999-1103): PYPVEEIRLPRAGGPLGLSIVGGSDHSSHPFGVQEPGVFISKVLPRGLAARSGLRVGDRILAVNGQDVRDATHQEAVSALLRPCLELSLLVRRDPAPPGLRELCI
SCRIB_1, Q14160, sequence (Q14160 718-814): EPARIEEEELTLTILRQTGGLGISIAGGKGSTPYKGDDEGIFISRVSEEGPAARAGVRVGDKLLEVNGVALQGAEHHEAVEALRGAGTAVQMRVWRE
GRID2IP_2, A4D2P6, sequence (A4D2P6 272-370): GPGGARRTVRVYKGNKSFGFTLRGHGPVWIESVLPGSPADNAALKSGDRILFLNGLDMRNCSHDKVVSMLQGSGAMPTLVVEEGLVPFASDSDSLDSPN
GRIP2_5, Q9C0E4, sequence (Q9C0E4 544-642): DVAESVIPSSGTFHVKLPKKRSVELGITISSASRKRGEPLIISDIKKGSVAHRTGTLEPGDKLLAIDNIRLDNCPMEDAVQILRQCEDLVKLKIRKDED
ARHGEF12, Q9NZN5-2, sequence (Q9NZN5 other isoform, or with tags, fused parts or gaps): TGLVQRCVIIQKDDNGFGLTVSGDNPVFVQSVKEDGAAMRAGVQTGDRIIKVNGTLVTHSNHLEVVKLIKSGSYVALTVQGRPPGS
DLG4_1, P78352, sequence (P78352 62-152): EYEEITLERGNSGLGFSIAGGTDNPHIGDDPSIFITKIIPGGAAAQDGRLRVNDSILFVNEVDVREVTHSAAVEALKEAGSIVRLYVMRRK
MAST2, Q6P0Q8, sequence (Q6P0Q8 1099-1202): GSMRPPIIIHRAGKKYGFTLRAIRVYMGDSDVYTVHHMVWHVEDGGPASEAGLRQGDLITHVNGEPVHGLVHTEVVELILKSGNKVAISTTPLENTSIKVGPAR
LDB3, O75112, sequence (O75112 1-94): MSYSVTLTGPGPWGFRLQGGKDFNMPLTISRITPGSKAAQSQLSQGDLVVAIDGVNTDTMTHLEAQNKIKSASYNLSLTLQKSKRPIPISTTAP

pKd (ARHGEF12, Q9NZN5-2; [1]): below the threshold | pKd (DFNB31_2, Q9P202; [1]): below the threshold | pKd (DLG4_1, P78352; [1]): below the threshold | pKd (DLG4_3, P78352; [1]): below the threshold | pKd (FRMPD1, Q5SYB0; [1]): below the threshold | pKd (GIPC2, Q8TF65; [1]): 3.68 | pKd (GRID2IP_1, A4D2P6; [1]): below the threshold | pKd (GRID2IP_2, A4D2P6; [1]): below the threshold | pKd (GRIP1_7, Q9Y3R0; [1]): below the threshold | pKd (GRIP2_5, Q9C0E4; [1]): below the threshold | pKd (GRIP2_6, Q9C0E4; [1]): below the threshold | pKd (GRIP2_7, Q9C0E4; [1]): below the threshold | pKd (HTRA3, P83110; [1]): below the threshold | pKd (LDB3, O75112; [1]): below the threshold | pKd (LNX1_1, Q8TBB1; [1]): below the threshold | pKd (MAGI2_2, Q86UL8; [1]): below the threshold | pKd (MAST2, Q6P0Q8; [1]): 3.81 | pKd (MPP2, Q14168; [1]): below the threshold | pKd (MPP6, Q9NZW5; [1]): below the threshold | pKd (PDZRN3_1, Q9UPQ7; [1]): below the threshold | pKd (SCRIB_1, Q14160; [1]): below the threshold | pKd (SCRIB_2, Q14160; [1]): below the threshold | pKd (SCRIB_3, Q14160; [1]): below the threshold | pKd (SNTA1, Q13424; [1]): below the threshold | pKd (SNTB1, Q13884; [1]): below the threshold | pKd (TJP3_3, O95049; [1]): below the threshold | pKd (TX1BP3, O14907; [1]): below the threshold
Binder: DAAHHDESNC [FMNL3, Q8IVF7]

pKd (ARHGEF12, Q9NZN5-2; [1]): below the threshold | pKd (DFNB31_2, Q9P202; [1]): below the threshold | pKd (DLG4_1, P78352; [1]): 3.49 | pKd (DLG4_3, P78352; [1]): below the threshold | pKd (FRMPD1, Q5SYB0; [1]): below the threshold | pKd (GIPC2, Q8TF65; [1]): below the threshold | pKd (GRID2IP_1, A4D2P6; [1]): below the threshold | pKd (GRID2IP_2, A4D2P6; [1]): below the threshold | pKd (GRIP1_7, Q9Y3R0; [1]): below the threshold | pKd (GRIP2_5, Q9C0E4; [1]): below the threshold | pKd (GRIP2_6, Q9C0E4; [1]): below the threshold | pKd (GRIP2_7, Q9C0E4; [1]): below the threshold | pKd (HTRA3, P83110; [1]): below the threshold | pKd (LDB3, O75112; [1]): below the threshold | pKd (LNX1_1, Q8TBB1; [1]): below the threshold | pKd (MAGI2_2, Q86UL8; [1]): below the threshold | pKd (MAST2, Q6P0Q8; [1]): 5.51 | pKd (MPP2, Q14168; [1]): below the threshold | pKd (MPP6, Q9NZW5; [1]): below the threshold | pKd (PDZRN3_1, Q9UPQ7; [1]): below the threshold | pKd (SCRIB_1, Q14160; [1]): 3.5 | pKd (SCRIB_2, Q14160; [1]): below the threshold | pKd (SCRIB_3, Q14160; [1]): 3.58 | pKd (SNTA1, Q13424; [1]): below the threshold | pKd (SNTB1, Q13884; [1]): below the threshold | pKd (TJP3_3, O95049; [1]): below the threshold | pKd (TX1BP3, O14907; [1]): below the threshold
Binder: EKPIDSETKM [SLC1A3, P43003]

pKd (ARHGEF12, Q9NZN5-2; [2]): below the threshold | pKd (DFNB31_2, Q9P202; [2]): below the threshold | pKd (DLG4_1, P78352; [2]): below the threshold | pKd (DLG4_3, P78352; [2]): below the threshold | pKd (FRMPD1, Q5SYB0; [2]): below the threshold | pKd (GIPC2, Q8TF65; [2]): below the threshold | pKd (GRID2IP_1, A4D2P6; [2]): below the threshold | pKd (GRID2IP_2, A4D2P6; [2]): below the threshold | pKd (GRIP1_7, Q9Y3R0; [2]): below the threshold | pKd (GRIP2_5, Q9C0E4; [2]): below the threshold | pKd (GRIP2_6, Q9C0E4; [2]): below the threshold | pKd (GRIP2_7, Q9C0E4; [2]): below the threshold | pKd (HTRA3, P83110; [2]): below the threshold | pKd (LDB3, O75112; [2]): below the threshold | pKd (LNX1_1, Q8TBB1; [2]): below the threshold | pKd (MAGI2_2, Q86UL8; [2]): below the threshold | pKd (MAST2, Q6P0Q8; [2]): 5.3 | pKd (MPP2, Q14168; [2]): below the threshold | pKd (MPP6, Q9NZW5; [2]): below the threshold | pKd (PDZRN3_1, Q9UPQ7; [2]): below the threshold | pKd (SCRIB_1, Q14160; [2]): below the threshold | pKd (SCRIB_2, Q14160; [2]): below the threshold | pKd (SCRIB_3, Q14160; [2]): 3.61 | pKd (SNTA1, Q13424; [2]): 3.49 | pKd (SNTB1, Q13884; [2]): below the threshold | pKd (TJP3_3, O95049; [2]): below the threshold | pKd (TX1BP3, O14907; [2]): below the threshold
Binder: KEYDDELTFF [USH1C, Q9Y6N9]
